First the molecules themselves.
B1: unnamed (parent)
chain 1: EATVYLPPVPVSKVVSTDEYVSRTSIYYYAGSSRLLAVGNPYFSIKSPNNNKKVLVPKVSGLQYRVFRVRLPDPNKFGFPDTSFYNPDTQRLVWACVGLEIGRGQPLGVGVSGHPYLNKFDDTETSNRYPAQPGSDNRECLSMDYKQTQLCLIGCKPPTGEHWGKGVACNNNAAATDCPPLELFNSIIEDGDMVDTGFGCMDFGTLQANKSDVPIDICNSTCKYPDYLKMASEPYGDSLFFFLRREQMFVRHFFNRAGKLGEAVPDDLYIKGSGNTAVIQSSAFFPTPSGSIVTSESQLFNKPYWLQRAQGHNNGICWGNQLFVTVVDTTRSTNMTLCTEVTKEGTYKNDNFKEYVRHVEEYDLQFVFQLCKITLTAEIMTYIHTMDSNILEDWQFGLTPPPSASLQDTYRFVTSQAITCQKTAPPKEKEDPLNKYTFWEVNLKEKFSADLDQFPLGRKFLLQSGLKAKPRLKRSAPTTRAPSTKRKKVKK
chain 2: EVQLQQSGAELVRPGALVKLSCKASGFNIKDYYMHWVKQRPEQGLEWIGWIDPENGKTIYDPRFRGKASITADTSSNTAYLQLSSLTSEDAAVYYCATSNYRYDRSFDYWGQGTTLTVSAKTTPPSVYPLAPGCGDTTGSSVTSGCLVKGYFPEPVTVTWNSGSLSSSVHTFPALLQSGLYTMSSSVTVPSSTWPSQTVTCSVAHPASSTTVDKKL
chain 3: DIQMTQSPSSLFASLGGKVTITCKASQDINKYIAWFQHKPGKGPRLLIHYTFTLQPGIPSRFSGSGSGRDYSFSISNLEPEDIATYYCLQYHNLYTFGGGTKLEIKRADAAPTVSIFPPSSEQLTSGGASVVCFLNNFYPKDINVKWKIDGSERQNGVLNSWTDQDSKDSTYSMSSTLTLTKDEYERHNSYTCEATHKTSTSPIVKSFNRNEC
B2: unnamed (parent)
chain 1: B1 chain 2
chain 2: B1 chain 3
chain 3: B1 chain 1

The source of these data is PMC5615192 (mBio, 2017).

The variants in the first assay derive from B1. Briefly: SPR (Biacore). Conditions: with partner chain of the complex shown; read off a plot.
Usually Kd stands for the free concentration of one partner at which half of the binding sites on the other are occupied at equilibrium, for simple one-to-one binding. Consider chain 1 N137A, for which the Kd was 8.2 -log10, M.
Regarding chain 1 N275A, the Kd is 6.9 -log10, M.
In the case of chain 1 S135A, the Kd is 8.2 -log10, M.
As to chain 1 Q132A, the Kd is 7.9 -log10, M.
As to chain 1 R128A, the Kd was 6 -log10, M.

A further assay covers variants of B2. Nature of the assay: indirect ELISA. Particulars: with partner chain of the complex shown. On the technique in general: In an ELISA, binding on a coated surface is turned into a signal by an enzyme label.
A word on the EC50: it is the concentration giving half of the maximal effect. Consider chain 3 D121A, for which the EC50 was 78.4 ng/mL.
For the variant chain 3 N275A, the EC50 is 45.5 ng/mL.
Still for that read-out and setting: in the case of chain 3 Q132A it was 15.2 ng/mL; in that of chain 3 S135A, 13.2 ng/mL.
On to chain 3 N137A, for which the EC50 amounted to 11 ng/mL.
